Results reported in patent US12404336 (dated 2025).

T1: human TIGIT on transfected CHOK1 cells (human, UniProt Q495A1 22-244)
T1 chain: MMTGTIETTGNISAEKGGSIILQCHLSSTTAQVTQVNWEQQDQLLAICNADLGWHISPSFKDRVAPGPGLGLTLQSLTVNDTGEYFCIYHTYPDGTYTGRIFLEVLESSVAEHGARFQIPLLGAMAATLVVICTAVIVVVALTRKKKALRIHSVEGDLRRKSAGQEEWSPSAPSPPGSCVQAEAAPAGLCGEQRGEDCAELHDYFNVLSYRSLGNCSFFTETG

T2: His tagged human TIGIT protein (human, UniProt Q495A1 22-141)
T2 chain: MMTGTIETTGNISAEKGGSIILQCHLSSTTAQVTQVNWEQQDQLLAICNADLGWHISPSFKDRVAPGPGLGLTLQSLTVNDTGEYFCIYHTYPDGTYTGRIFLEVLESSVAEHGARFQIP

T3: human LAG-3 fused to mouse IgG2a (huLAG-3-mIgG2a) (human, UniProt P18627 23-450)
T3 chain: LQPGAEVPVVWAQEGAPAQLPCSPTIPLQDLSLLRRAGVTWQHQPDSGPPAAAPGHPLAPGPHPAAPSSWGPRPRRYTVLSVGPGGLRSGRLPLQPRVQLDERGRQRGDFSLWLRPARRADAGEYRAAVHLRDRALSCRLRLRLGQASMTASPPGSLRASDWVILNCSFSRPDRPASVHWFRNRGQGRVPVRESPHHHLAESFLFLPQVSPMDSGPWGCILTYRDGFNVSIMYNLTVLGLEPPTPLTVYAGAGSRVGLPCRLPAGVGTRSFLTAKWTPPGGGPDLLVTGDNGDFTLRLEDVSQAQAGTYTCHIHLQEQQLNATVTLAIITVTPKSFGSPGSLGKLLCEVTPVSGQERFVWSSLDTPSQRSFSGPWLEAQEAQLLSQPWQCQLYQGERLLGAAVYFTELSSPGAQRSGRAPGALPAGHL

T4: human LAG-3 on CHO-K1 cells (human, UniProt P18627 23-525)
T4 chain: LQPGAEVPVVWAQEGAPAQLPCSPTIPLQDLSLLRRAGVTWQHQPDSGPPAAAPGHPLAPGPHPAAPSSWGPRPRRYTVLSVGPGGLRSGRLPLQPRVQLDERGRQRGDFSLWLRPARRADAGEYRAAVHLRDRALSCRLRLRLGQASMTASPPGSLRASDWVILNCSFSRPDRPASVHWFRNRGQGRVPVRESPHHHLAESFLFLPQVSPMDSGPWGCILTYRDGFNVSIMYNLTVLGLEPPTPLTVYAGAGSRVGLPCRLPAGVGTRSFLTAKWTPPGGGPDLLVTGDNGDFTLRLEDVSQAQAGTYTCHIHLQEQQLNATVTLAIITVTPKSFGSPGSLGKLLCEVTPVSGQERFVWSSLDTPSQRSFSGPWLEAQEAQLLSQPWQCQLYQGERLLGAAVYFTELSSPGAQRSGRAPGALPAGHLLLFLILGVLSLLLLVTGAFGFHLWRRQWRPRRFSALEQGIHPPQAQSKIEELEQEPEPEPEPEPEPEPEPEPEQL

T5: His tagged human LAG-3 (human, UniProt P18627 23-450)
T5 chain: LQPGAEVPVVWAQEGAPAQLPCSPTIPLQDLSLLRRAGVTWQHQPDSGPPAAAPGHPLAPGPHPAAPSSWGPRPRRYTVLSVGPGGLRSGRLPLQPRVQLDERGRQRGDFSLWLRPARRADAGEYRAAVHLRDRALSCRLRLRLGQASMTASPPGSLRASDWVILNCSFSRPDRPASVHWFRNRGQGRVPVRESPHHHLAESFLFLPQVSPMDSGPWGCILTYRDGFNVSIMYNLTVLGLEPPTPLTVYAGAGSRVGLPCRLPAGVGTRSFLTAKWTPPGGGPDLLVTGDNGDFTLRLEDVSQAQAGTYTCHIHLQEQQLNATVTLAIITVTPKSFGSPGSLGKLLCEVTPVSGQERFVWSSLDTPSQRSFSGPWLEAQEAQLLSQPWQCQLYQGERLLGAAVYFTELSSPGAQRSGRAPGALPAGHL


How the values were obtained:
[1] = target: T1, human TIGIT on transfected CHOK1 cells; test: cell-based blocking of TIGIT/PVR
[2] = target: T2, His tagged human TIGIT protein; test: sandwich ELISA; simultaneous binding of LAG-3-muFc and His-tagged TIGIT
[3] = target: T3, human LAG-3 fused to mouse IgG2a …; test: cell-based blocking of LAG-3/MHC II
[4] = target: His tagged human PD-1 protein (human, UniProt Q15116 25-167); test: BLI
[5] = target: T2, His tagged human TIGIT protein; test: BLI
[6] = target: T3, human LAG-3 fused to mouse IgG2a …; test: cell-based blocking of LAG-3-muFc binding to MHC on Raji cells
[7] = target: T4, human LAG-3 on CHO-K1 cells; test: flow cytometry binding
[8] = target: T3, human LAG-3 fused to mouse IgG2a …; test: SPR
[9] = target: T5, His tagged human LAG-3; test: SPR

His tagged human PD-1 protein, sequence (Q15116 25-167): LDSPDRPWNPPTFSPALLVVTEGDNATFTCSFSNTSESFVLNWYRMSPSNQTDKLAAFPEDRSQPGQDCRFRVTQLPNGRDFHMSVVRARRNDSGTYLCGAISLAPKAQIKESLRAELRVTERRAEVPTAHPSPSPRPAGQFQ

Row | Binder | IC50 [1] | EC50 [2] | IC50 [3] | Kd [4] | IC50 [6] | other results
1 | Bi-LT-1 (antibody) chain 1: not shown chain 2: DIQMTQSPSSLSASVGDRVTITCRASQDISSRLTWLQQKPEKAPKRLIYATSSLDSGVPSRFSGSGSGTDFTLTISSLQPEDFATYYCLQYASSPLTFGGGTKVEIKRTVAAPSVFIFPPSDEQLKSGTASVVCLLNNFYPREAKVQWKVDNALQSGNSQESVTEQDSKDSTYSLSSTLTLSKADYEKHKVYACEVTHQGLSSPVTKSFNRGEC | 0.24 nM | 0.0107 µg/mL | 0.7 nM | – | – | –
2 | Bi-TPM-94A (antibody) chain 1: not shown chain 2: DIQMTQSPSFLSASVGDRVTITCKASQNVGTNVAWYQQKPGKAPKALIYSASYRYSGVPSRFSGSGSGTEFTLTISSLQPEDFATYYCQQYYSYPYTFGQGTKLEIKRTVAAPSVFIFPPSDEQLKSGTASVVCLLNNFYPREAKVQWKVDNALQSGNSQESVTEQDSKDSTYSLSSTLTLSKADYEKHKVYACEVTHQGLSSPVTKSFNRGEC | – | – | – | 2.9 nM | – | –
3 | Bi-TPM-94B (antibody) chain 1: not shown chain 2: DIQMTQSPSFLSASVGDRVTITCKASQNVGTNVAWYQQKPGKAPKALIYSASYRYSGVPSRFSGSGSGTEFTLTISSLQPEDFATYYCQQYYSYPYTFGQGTKLEIKRTVAAPSVFIFPPSDEQLKSGTASVVCLLNNFYPREAKVQWKVDNALQSGNSQESVTEQDSKDSTYSLSSTLTLSKADYEKHKVYACEVTHQGLSSPVTKSFNRGEC | 0.13 nM | – | – | 2.7 nM | – | Kd [5]: 1.7 nM
4 | Bi-LT-3 (antibody) chain 1: not shown chain 2: DIQMTQSPSSLSASVGDRVTITCRASQDISSRLTWLQQKPEKAPKRLIYATSSLDSGVPSRFSGSGSGTDFTLTISSLQPEDFATYYCLQYASSPLTFGGGTKVEIKRTVAAPSVFIFPPSDEQLKSGTASVVCLLNNFYPREAKVQWKVDNALQSGNSQESVTEQDSKDSTYSLSSTLTLSKADYEKHKVYACEVTHQGLSSPVTKSFNRGEC | 0.22 nM | 0.0108 µg/mL | 0.9 nM | – | – | –
5 | chimeric 2L2A antibody (antibody, V domains shown) VH: EVQLQQSGPVLVKPGASVKMSCKASGYTLTDYYMNWMKQSHGKSLEWIGVINPYNGDTSCNQKFKGKATLTADKSSSTAYMELNSLTSDDSAVYYCVRDDGYYVHYFDYWGQGTTLTVSS VL: DIQMTQSPSSLSASLGERVTLTCRASQDISSRLTWLQQEPDGTIKRLIYATSSLDSGVPKRFNGSRSGSDYSLTISSLESEDFVDYYCLQYASSPLTFGAGTKLELKR | – | – | – | – | 3.74 nM | –
6 | 2L2A.1 (antibody, V domains shown) VH: QVQLVQSGAEVKKPGASVKVSCKASGYTLTDYYMNWMRQAPGQGLEWMGVINPYNGDTSYNQKFKGRVTMTRDTSTSTVYMELSSLRSEDTAVYYCVRDDGYYVHYFDYWGQGTLVTVSS VL: DIQMTQSPSSLSASVGDRVTITCRASQDISSRLTWLQQEPEKAPKRLIYATSSLDSGVPKRFSGSGSGTDFTLTISSLQPEDFATYYCLQYASSPLTFGGGTKVEIK | – | – | – | – | 1.97 nM | EC50 [7]: 1.48 nM; Kd [8]: 0.001 nM; Kd [9]: 1.42 nM
